Measurements reported in US20130303393A1.

Target: NlpA-80R(scFv)

B1: M18.1 Hum IgG (antibody, V domains shown)
VH: EVQLVESGGGLVQPGGSLRLSCADSGYAFNSSWMNWVRQAPGKGLEWVGRIYPGDGDSNYNGKFEGRAIISADKSSSTAYLQMNSLRAEDTAVYYCARSGLLRYAMDYWGQGTLVTVSS
VL: DIQMTQSPSSLSASVGDRVTVTCRASQGIRNYLNWYQQKPGKAPKFLIYYTSRLLPGVPSRFSGSGSGTDYTLTINSLEQEDIATYYCQQGNTPPWTFGQGTKVEIKR
M (FL1-Height): 4
